{"source": "patent US6753317", "binders": {"B1": {"name": "N,N(Me)2-Dmt-Tic-OH (peptide)", "peptide": "{N,N‑dimethyl}-[Dmt]-[Tic]-OH", "modifications": "also: tritium-labelled form used as radioligand"}, "B2": {"name": "H-Dmt-Tic-Ala-NHMe (peptide)", "peptide": "H-[Dmt]-[Tic]-Ala-NHMe", "SMILES": "CNC(=O)[C@H](C)NC(=O)[C@@H]1Cc2ccccc2CN1C(=O)[C@@H](N)Cc1c(C)cc(O)cc1C"}, "B3": {"name": "H-Dmt-Tic-Ala-NH-tBu (peptide)", "peptide": "H-[Dmt]-[Tic]-Ala-NHtBu", "SMILES": "Cc1cc(O)cc(C)c1C[C@H](N)C(=O)N1Cc2ccccc2C[C@H]1C(=O)N[C@@H](C)C(=O)NC(C)(C)C"}, "B4": {"name": "H-Dmt-Tic-Ala-NH-1-adamantane (peptide)", "peptide": "H-[Dmt]-[Tic]-Ala-{NH(1-Adamantyl)}"}, "B5": {"name": "[des-NH2-α-pyrrolidine-1-yl]-Dmt-Tic-OH (peptide)", "peptide": "{des‑NH2‑α‑pyrrolidine‑1‑yl}-[Dmt]-[Tic]-OH"}, "B6": {"name": "H-Dmt-Tic-NH2 (peptide)", "peptide": "H-[Dmt]-[Tic]-NH2"}, "B7": {"name": "[des-NH2-α-pyrrole-1-yl]-Dmt-Tic-OH (peptide)", "peptide": "{des‑NH2‑α‑pyrrole‑1‑yl}-[Dmt]-[Tic]-OH"}, "B8": {"name": "H-Dmt-Tic-NHMe (peptide)", "peptide": "H-[Dmt]-[Tic]-NHMe"}, "B9": {"name": "H-Dmt-Tic-Ala-OH (peptide)", "peptide": "H-[Dmt]-[Tic]-Ala-OH"}, "B10": {"name": "H-Dmt-Tic-NH-tetrazole-5-yl (peptide)", "peptide": "H-[Dmt]-[Tic]-{NH‑tetrazole‑5‑yl}"}, "B11": {"name": "H-Dmt-Tic-NH-1-adamantane (peptide)", "peptide": "H-[Dmt]-[Tic]-{NH(1-Adamantyl)}", "SMILES": "Cc1cc(O)cc(C)c1C[C@H](N)C(=O)N1Cc2ccccc2C[C@H]1C(=O)NC12CC3CC(CC(C3)C1)C2"}, "B12": {"name": "H-Dmt-D-Tic-NH-1-adamantane (peptide)", "peptide": "H-[Dmt]-[dTic]-{NH(1-Adamantyl)}"}, "B13": {"name": "H-Dmt-Tic-Ala-NH2 (peptide)", "peptide": "H-[Dmt]-[Tic]-Ala-NH2"}, "B14": {"name": "N,N(Me)2-Dmt-Tic-NHMe (peptide)", "peptide": "{N,N‑dimethyl}-[Dmt]-[Tic]-NHMe"}, "B15": {"name": "N,N(Me)2-Dmt-Tic-NH-1-adamantane (peptide)", "peptide": "{N,N‑dimethyl}-[Dmt]-[Tic]-{NH(1-Adamantyl)}"}, "B16": {"name": "N,N(Me)2-Dmt-D-Tic-NH-1-adamantane (peptide)", "peptide": "{N,N‑dimethyl}-[Dmt]-[dTic]-{NH(1-Adamantyl)}"}}, "note": "Non-standard residues stand in square brackets, D forms with d. *: point of attachment. des‑NH2‑α‑pyrrolidine‑1‑yl = Dmt (2',6'-dimethyl-L-tyrosine) with the α-amine replaced by pyrrolidine-1-yl, Cc1cc(O)cc(C)c1C[C@@H](C(=O)*)N1CCCC1; des‑NH2‑α‑pyrrole‑1‑yl = replacement of the α-amino group by a pyrrol-1-yl group; NH(1-Adamantyl) = C1C2CC3CC1CC(N*)(C2)C3; Dmt = Cc1cc(O)cc(C)c1C[C@H](N)C(=O)O; NH‑tetrazole‑5‑yl = n1nc(N*)n[nH]1; Tic = O=C(O)[C@@H]1Cc2ccccc2CN1; dTic = O=C(O)[C@H]1Cc2ccccc2CN1; NHtBu = CC(C)(C)N*"}
{"molecular_target": "δ-opioid receptor of the mouse vas deferens (MVD) (mouse), P32300", "sequence (P32300 whole entry, stated change not applied)": "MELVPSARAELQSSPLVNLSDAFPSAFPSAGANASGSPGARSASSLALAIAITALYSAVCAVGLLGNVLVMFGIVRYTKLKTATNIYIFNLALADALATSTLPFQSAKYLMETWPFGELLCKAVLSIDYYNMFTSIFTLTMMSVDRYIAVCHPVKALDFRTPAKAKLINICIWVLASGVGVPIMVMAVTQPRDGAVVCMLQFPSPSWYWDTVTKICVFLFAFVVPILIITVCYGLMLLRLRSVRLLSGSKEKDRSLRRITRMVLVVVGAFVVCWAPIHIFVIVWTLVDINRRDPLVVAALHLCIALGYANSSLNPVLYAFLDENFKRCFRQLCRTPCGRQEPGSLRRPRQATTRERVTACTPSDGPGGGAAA", "experiment": "cell-based or functional assay", "units": {"MVD Ke": "nM", "MVD ED50": "µM"}}
{"binder": "B1", "MVD Ke": 0.28, "MVD pA2": 9.4}
{"binder": "B2", "MVD ED50": 1.29}
{"binder": "B3", "MVD Ke": 0.69, "MVD pA2": 9.16}
{"binder": "B4", "MVD Ke": 0.51, "MVD pA2": 9.29}
{"binder": "B5", "MVD Ke": 121, "MVD pA2": 6.9}
{"binder": "B6", "MVD Ke": 42, "MVD pA2": 7.2}
{"binder": "B7", "MVD Ke": 408, "MVD pA2": 6.39}
{"binder": "B8", "MVD ED50": 21.2, "MVD Ke": "> 10000"}
{"binder": "B9", "MVD Ke": 4, "MVD pA2": 8.4}
{"binder": "B10", "MVD Ke": 36.3, "MVD pA2": 7.44}
{"binder": "B11", "MVD ED50": 0.87, "MVD Ke": "> 10000"}
{"binder": "B12", "MVD Ke": "> 10000"}
{"binder": "B13", "MVD Ke": 9, "MVD pA2": 8}
{"binder": "B14", "MVD Ke": 0.41, "MVD pA2": 9.39}
{"binder": "B15", "MVD Ke": 0.87, "MVD pA2": 9.06}
{"binder": "B16", "MVD Ke": 128, "MVD pA2": 6.91}
